Like-named read-outs stand apart in the source and are kept apart here.
Legend:
[1] = target: Bone morphogenetic protein 2 (rhBMP-2) (UniProt P12643); assay: SPR (Reichert SR 7000 refractometer); conditions: pH 7.4; 20°C; 154 mM NaCl plus 6.7 mM phosphates (PBS); HyClone PBS (154 mM NaCl, 1.06 mM KH2PO4, 5.6 mM Na2HPO4) at pH 7.4. The pH 4.5 solvent is the same PBS acidified with d
[2] = target: Kerateine (KTN) extract, in solution (analyte); assay: SPR (Reichert SR 7000 refractometer); conditions: 20°C, no added salt, unbuffered
[3] = target: kerateine (reduced hair keratin extract) (Homo sapiens) (UniProt Q15323); assay: SPR
[4] = target: kerateine (reduced hair keratin extract) (Homo sapiens) (UniProt Q15323); assay: SPR; remark: listed apart in the source
[5] = pH 7, deionized water, water (pH 7)
[6] = pH 12, 10 mM NaOH, 10 mM NaOH (pH 12)

Sequence of Bone morphogenetic protein 2 (rhBMP-2) (P12643 whole entry): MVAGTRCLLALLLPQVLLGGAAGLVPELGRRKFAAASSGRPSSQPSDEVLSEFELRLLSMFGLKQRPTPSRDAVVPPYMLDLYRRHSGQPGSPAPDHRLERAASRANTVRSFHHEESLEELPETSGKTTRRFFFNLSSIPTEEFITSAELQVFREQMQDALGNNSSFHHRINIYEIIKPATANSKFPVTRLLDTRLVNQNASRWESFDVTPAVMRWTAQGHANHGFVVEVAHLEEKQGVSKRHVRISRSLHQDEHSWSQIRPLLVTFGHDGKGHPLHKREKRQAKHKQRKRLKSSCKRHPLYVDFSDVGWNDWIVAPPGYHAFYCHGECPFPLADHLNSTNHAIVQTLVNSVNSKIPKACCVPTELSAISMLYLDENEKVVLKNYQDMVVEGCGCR

| KD [1] [µM] | t1/2 (half-life of the complex) [1] [min] | ΔG (dissociation energy) [1] [kcal/mol] | KD [2, 5] [µM] | t1/2 (half-life of the complex) [2, 5] [min] | ΔG (dissociation energy) [2, 5] [kcal/mol] | KD [2, 6] [µM] | t1/2 (half-life of the complex) [2, 6] [min] | ΔG (dissociation energy) [2, 6] [kcal/mol] | Kd [3] [µM] | Kd [4] [µM] | Substance |
| --- | --- | --- | --- | --- | --- | --- | --- | --- | --- | --- | --- |
| 32 | 3.73 | 6.0 | 180 | 1.28 | 5.0 | 100 | 1.77 | 5.4 | – | – | Kerateine (KTN) extract, chemisorbed monolayer on gold |
| – | – | – | – | – | – | – | – | – | 180 | 100 | kerateine (reduced hair keratin extract), Q15323 |

From PMC4552821
